The target of this assay is SARS-CoV-1 S on pseudovirions (Sino 1-11, 28 amino acid C-terminal deletion) (SARS-CoV-1, UniProt P59594 14-1227). The assay is described as follows: cell-based or functional assay.

B1: COV_2063 (antibody, V domains shown)
VH: EVQLVESGGGVVQPGRSLRLSCAASGFTFSSYGMHWVRQAPGKGLEWVAVIWYDGSNKYYADSVKGRFTISRDNSKNTLYLQMNSLRAEDTAVYYCARGPLGSNYFNYDAFDIWGQGTMVTVSS
VL: DVVMTQSPLSLPVTLGQPASISCRSSQSLEYSDGNTYLNWFQQRPGQSPRRLIYKVSKRDSGVPDRFSGSGSGSDFTLKISRVEAEDVGVYYCMQGTHWPLTFGGGTKVEIK
As for B1, the “IC50, SARS-CoV-1 pseudotyped neutralization” value was found to be 0.095 µg/mL.

Values taken from US20240101645A1 (HENRY M JACKSON FOUNDATION FOR THE ADVANCEMENT OF MILITARY …, published 2024).
